Data published in patent US20240117061A1 (WUHAN YZY BIOPHARMA, published 2024).

T1: recombinant human BCMA-his fusion protein (ACRO Biosystem, Cat. No. BCA-H522y) (human, UniProt Q02223 1-54)
T1 construct: extracellular domain; Bought protein; also called huBCMA-his; hu BCMA-his; not shown: His tag
T1 sequence (looked up): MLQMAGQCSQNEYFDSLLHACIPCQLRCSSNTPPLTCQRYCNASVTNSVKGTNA

T2: human BCMA on cells (NCI-H929, U266B1, HEK293 huBCMA) (human, UniProt Q02223 1-184)
T2 construct: whole, on cells; also called cell surface BCMA antigen
T2 sequence (looked up): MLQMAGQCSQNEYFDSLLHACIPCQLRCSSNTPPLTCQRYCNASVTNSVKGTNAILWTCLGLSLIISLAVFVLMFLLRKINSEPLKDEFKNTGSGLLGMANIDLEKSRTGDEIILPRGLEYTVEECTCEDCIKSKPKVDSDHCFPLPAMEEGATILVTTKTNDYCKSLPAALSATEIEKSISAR

B1: humanized antibody hu-mAb2 (VH2+VL2) (antibody, V domains shown)
VH: QVQLVQSGAEVKKPGSSVKVSCKVSGYTFTDHTIHWMKQAPGQGLEWIGYIYPRNGNTKYNEKFKGKATLTADKSTSTAYMELSSLRSEDTAVYFCARYDYDGYFDVWGQGTLVTVSS
VL: DVVMTQTPLSLSVTPGQPASISCRSSQSHVHSDGHTYLHWYLQKPGQSPELLIYKVSNRFSGVPDRFSGSGSGTDFTLKISRVEAEDVGVYFCSQNTHFPWTFGGGTKVEIK
notes: human IgG1/kappa named only as preferred
B2: humanized antibody hu-mAb3 (VH3+VL3) (antibody, V domains shown)
VH: QVQLVQSGAEVKKPGASVKVSCKASGYTITDYNMDWVRQAPGQGLEWIGNINPHNGGSIYNQKFQGRATLTVDKSTSTAYMELSSLRSEDTAVYYCARGDATLVLDYWGQGTTVTVSS
VL: DIQLTQSPSSLSASVGDRATITCRASKSVSTSGLSYMHWYQQKPGKAPKVLIYLASNLESGVPARFSGSGSGTDFTLTISSVQPEDFATYYCQHSRELPPTFGQGTKLELK
notes: as for B1
B3: soluble human APRIL (ACRO, Cat. No. APL-H5244) (ligand, UniProt O75888 115-250, looked up)
chain: HSVLHLVPINATSKDDSDVTEVMWQPALRRGRGLQAQGYGVRIQDAGVYLLYSQVLFQDVTFTMGQVVSREGQGRQETLFRCIRSMPSHPDRAYNSCYSAGVFHLHQGDILSVIIPRARAKLNLSPHGTFLGFVKL
notes: also called APRIL ligand; APRIL-biotin
B4: mouse monoclonal antibody 18F6G3H9 (antibody, V domains shown)
VH: EVQLQQSGPELVKPGTSVEMSCKASGYTFTDYNIHWVRQRHGESLEWLGYINPNNGVTNFNQKFKGKATLTVNKSSSTAYMELRSLTSDDSAVYYCSSGLFDGYPFPYWGQGTLVTVSA
VL: DIVLTQSPASLVVSLGQRATISCRASKSVSTSGYNYIHWYQQKPGQPPKLLIFLASNLKSGVPARFSGGGSGTDFTLNIHPVEEDDAATYFCQHNRELPYTFGGGTKVEIK
notes: detected with anti-mouse IgG; also called Clone 18F6G3H9; BCMA-HC1/BCMA-LC1
B5: mouse monoclonal antibody 202E11H10E3 (antibody, V domains shown)
VH: QVQLQQSDAELVKPGTSVKISCKVSGYTFTDHTIHWMKQRPEQGLEWIGYIYPRNGNTKYNEKFKGKATLTADKSSSTAYMHLNSLTSEDSAVYFCARYDYDGYFDVWGTGTTVTVSS
VL: DVVMTQTPLSLPVSLGDQASISCRSSQSHVHSDGHTYLHWYLQKPGQSPELLIYKVSNRFSGVPDRFSGSGSGTDFTLKISRVEAEDLGVYFCSQNTHFPWTFGGGTKLEIK
notes: detected with anti-mouse IgG; also called Clone 202E11H10E3; BCMA-HC2/BCMA-LC2

Tests used:
[1] = biological target: T1, recombinant human BCMA-his fusion …; test: SPR (Biacore T200), anti-His capture on CM5, 1:1 fit
Experimental: (§1) In this example, the antigen-antibody binding kinetics and affinity were determined by the BIACORE method.
(§2) Procedures: The anti-histidine antibody (GE, His capture Kit, Cat. No. 28995056) was conjugated to the Sereis S Sensor Chip CMS to capture the test articles, thus acquiring the binding kinetic and affinity data of the antigen, as an analyte, to the test articles. The initial concentration for detecting the binding of the antigen and the test articles was 10 nM. […] The Start up flushing process (1×HBS-EP+buffer) was performed at least thrice before loading to equilibrate the system. The association and dissociation tendencies between the antigen and the test articles were detected. When the dissociation was completed, a regeneration reagent was loaded for regeneration before the detection of the next concentration was performed. After the detection was finished, the data were fitted by using a 1:1 Binding fitting mode in data analysis software (Biacore T200 Evaluation Software).

[2] = biological target: T1, recombinant human BCMA-his fusion …; test: competitive ELISA, coated huBCMA-his, competitor 83A10-biotin
[3] = biological target: T1, recombinant human BCMA-his fusion …; test: ELISA, coated antigen
Experimental: (§3) Procedures: huBCMA-his and cynoBCMA-his antigens were prepared into 0.5 μg/mL coating solutions with PBS (pH 7.4). The coating solutions were added to a microplate at 100 μL/well and incubated at 4° C. overnight. The residual coating solution was discarded before 3% BSA was added at 300 μL/well, and the plate was blocked for 3 h at room temperature. The microplate was washed once with PB ST at 300 The stock humanized monoclonal antibody solutions were serially 3-fold diluted to the 11th concentration. The dilutions were added to the microplate at 100 μL/well. After a 1-h incubation at room temperature, the microplate was washed thrice with PBST at 300 The HRP-conjugated 6*His, His-Tag antibody was 25,000-fold diluted with 1% BSA-PBST and added at 100 After another 1-h incubation at room temperature, the microplate was washed thrice with PB ST at 300 μL/well and dried. The TMB chromogenic solution was added at 100 μL. After a 5-min reaction at room temperature, 2 M H2504 was added at 100 μL/well to terminate the reaction. The microplate was placed on a microplate reader (Molecular Devices, SPECTRA Max plus 384) and the absorbance OD450 value was read at 450 nm wavelength.

[4] = biological target: T1, recombinant human BCMA-his fusion …; test: competitive ELISA, coated huBCMA-his, competitor 83A10-biotin, antibody at 7 µg/mL
[5] = biological target: T2, human BCMA on cells (NCI-H929, U266B1, …); test: flow cytometry on NCI-H929 cells
Experimental: (§4) Procedures: Preparation of cell suspensions: The cells were resuspended in PBS, and the cell density was adjusted to 2×10⁵ cells/well. Mouse antibodies were added to a 96-well plate at […] and serially 3-fold diluted from 3000 nM. The plate was incubated for 1 h at 4° C. 150 μL of precooled PBS containing 1% of FBS was added into the 96-well plate after the co-incubation with the primary antibody was finished. The mixtures were centrifuged at 300×g for 5 min and the supernatants were discarded. The above procedures were repeated once. The fluorescent secondary antibody PE […] (Biolegend, 409304) was added at 80 μL/well. The plate was incubated at 4° C. for 30 min. 150 μL of precooled PBS containing 1% of FBS was added into the 96-well plate after the co-incubation with the secondary antibody was finished. The mixtures were uniformly mixed with a pipette. The 96-well plate was centrifuged at 300×g for 5 min in a plate centrifuge and the supernatants were removed. The above procedures were repeated once. The cells were resuspended in 100 μL of PBS containing 1% of FBS and detected on a flow cytometry (BD Accuri™ C6).

[6] = biological target: T1, recombinant human BCMA-his fusion …; test: competitive ELISA, coated huBCMA-his, competitor APRIL-biotin
[7] = biological target: T3, recombinant cynomolgus monkey cynoBCMA-his (ACRO Biosystem, Cat. No. BCA-052H7) (cynomolgus monkey, UniProt A0A2K5UD97 1-53); test: SPR (Biacore T200), anti-His capture on CM5, 1:1 fit
T3 construct: extracellular domain; Bought protein; also called cynomolgus/rhesus macaque BCMA/TNFRSF17 protein; not shown: His tag
Experimental: as §1, §2

[8] = biological target: T3, recombinant cynomolgus monkey …; test: competitive ELISA, coated cynoBCMA-his, competitor 83A10-biotin
[9] = biological target: T3, recombinant cynomolgus monkey …; test: ELISA, coated antigen
Experimental: as §3

[10] = biological target: T4, cynomolgus monkey BCMA on HEK293 cynoBCMA cells (cynomolgus monkey, UniProt A0A2K5UD97 1-183); test: flow cytometry on HEK293 cynoBCMA cells
T4 construct: whole, on cells
Experimental: as §4

[11] = biological target: T1, recombinant human BCMA-his fusion …; test: competitive ELISA, coated huBCMA-his, competitor APRIL-biotin; remark: listed apart in the source
Experimental: The 96-well microplate was treated with 100 μL of 0.5 μg/mL huBCMA-his in PBS and incubated overnight at 4° C. The plate was then washed thrice with PBS washing buffer containing 0.1% of Tween-20 and blocked with 300 μL of PBS containing 1% of BSA for 2 h. 100 μL of each BCMA antibody was added to the plate. […] The plate was incubated at 37° C. for 1 h, and unbound secondary antibody was washed with PBS washing buffer containing 0.1% of Tween-20. The TMB chromogenic solution was added at 100 μL/well. After a 5-min reaction at room temperature, 2 M H₂SO₄ was added at 100 μL/well to terminate the reaction. The microplate was placed on a microplate reader (Molecular Devices, SPECTRA Max plus 384) and the absorbance OD450 value was read at 450 nm wavelength.

[12] = biological target: T2, human BCMA on cells (NCI-H929, U266B1, …); test: flow cytometry on NCI-H929 cells; remark: listed apart in the source
Experimental: (§5) The affinities of the 3 mouse antibodies for cell surface BCMA antigen were assessed using FACS. Materials: cell lines NCI-H929, U266B1, HEK293 cynoBCMA and HEK293; PBS buffer; FBS (fetal bovine serum; Gibco, 10099141); PE goat anti-mouse IgG Fc (Biolegend, 405307). Procedures: The cells were resuspended in PBS to prepare cell suspensions containing 200,000 cells. Mouse BCMA antibodies were added to a 96-well plate at 50 μL/well and serially 3-fold diluted from 3000 nM. The plate was incubated for 1 h at 4° C. 150 μL of precooled PBS containing 1% of FBS was added into the 96-well plate after the co-incubation with the primary antibody was finished. The mixtures were centrifuged at 300×g for 5 min and the supernatants were discarded. The above procedures were repeated once. The fluorescent secondary antibody PE goat anti-mouse IgG Fc was added at 80 μL/well. The plate was incubated at 4° C. for 30 min. 150 μL of precooled PBS containing 1% of FBS was added into the 96-well plate after the co-incubation with the secondary antibody was finished. The mixtures were uniformly mixed with a pipette. The 96-well plate was centrifuged at 300×g for 5 min in a plate centrifuge and the supernatants were discarded. The above procedures were repeated once. The cells were resuspended in 100 μL of PBS containing 1% of FBS and detected on a flow cytometry (BD Accuri™ C6).

[13] = biological target: T5, recombinant human BCMA-huFc fusion protein (human); test: indirect ELISA, coated antigen
T5 construct: also called huBCMA-huFc
Experimental: Procedures: Human, mouse and monkey BCMA antigens were prepared into 0.5 μg/mL coating solutions with PBS buffer. The coating solutions were added to a microplate at 100 μL/well and incubated at 4° C. overnight. The residual coating solution was discarded before 3% BSA was added at 300 μL/well, and the plate was blocked for 3 h at room temperature. The microplate was washed once with PBST (PBS containing 0.1% of TWEEN 20) at 300 μL/well. The three mouse BCMA antibodies were serially 3-fold diluted from 10 μg/mL to the 7th concentration. The dilutions were added to the microplate at 100 μL/well. After a 1-h incubation at room temperature, the microplate was washed thrice with PBST at 300 μL/well. The HRP goat anti-mouse IgG antibody was 25,000-fold diluted with 1% BSA-PBST and added at 100 μL/well. After another 1-h incubation at room temperature, the microplate was washed thrice with PBST at 300 μL/well and dried. The TMB chromogenic solution was added at 100 μL/well. After a 5-min reaction at room temperature, 2 M H₂SO₄ was added at 100 μL/well to terminate the reaction. The microplate was placed on a microplate reader (Molecular Devices, SPECTRA Max plus 384) and the absorbance OD450 value was read at 450 nm wavelength.

[14] = biological target: T2, human BCMA on cells (NCI-H929, U266B1, …); test: flow cytometry on U266B1 cells
Experimental: as §5

T3 sequence (A0A2K5UD97 entry or part of it): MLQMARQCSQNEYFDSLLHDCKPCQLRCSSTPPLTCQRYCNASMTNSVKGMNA
T4 sequence (A0A2K5UD97 entry or part of it): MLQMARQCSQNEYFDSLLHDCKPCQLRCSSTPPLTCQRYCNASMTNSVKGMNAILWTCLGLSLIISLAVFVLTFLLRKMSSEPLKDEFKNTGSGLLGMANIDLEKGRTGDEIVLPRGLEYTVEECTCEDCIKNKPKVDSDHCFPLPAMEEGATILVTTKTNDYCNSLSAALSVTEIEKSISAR

Binder	Kd [1] [nM]	koff [1] [s⁻¹]	kon [1] [M⁻¹ s⁻¹]	IC50 [2] [µg/mL]	EC50 [3] [nM]	EC50 [5] [nM]	IC50 [6] [µg/mL]	EC50 [12] [nM]	EC50 [13] [nM]	EC50 [14] [nM]	other results
B1	1.15	0.0258	2.24e+07	8.35	0.00271	0.83	2.76				competition [4]: 30%
B2	0.399	0.00235	5.9e+06	1.37	0.0226	8.07	0.918				Kd [7]: 0.256 nM; koff [7]: 0.000773 s⁻¹; kon [7]: 3.02e+06 M⁻¹ s⁻¹; IC50 [8]: 1.32 µg/mL; EC50 [9]: 0.0303 nM; EC50 [10]: 3.76 nM
B3							3.7				IC50 [11]: 0.0247 µg/mL
B4								3.1	0.0705	1.6	
B5								1.1	0.0764	1	
